Laboratory results published in US20130203162A1 (EVROGEN IP JOINT STOCK, published 2013).

What was measured:
[1] = biological target: the molecule itself; assay: gel filtration (self-association)
Description: (§1) Purified protein samples (˜1 mg/ml) were loaded onto a Sephadex-100 column (0.7×60 cm) and eluted with a solution of 50 mM phosphate buffer (pH 7.0) and 100 mM NaCl. EGFP, HcRed1 and DsRed2 (Clontech) were used as monomer, dimer and tetramer standards, respectively. In addition, a tendency to form tetramers has been indicated when recombinant purified EqFP578 was used for the gel-filtration at concentration of about 10 mg/ml.
Recombinant nrM181-5 was prepared, purified and characterized as described in the Example 2 for wild type EqFP578. nrM181-5 is a cyan fluorescent protein, characterized with excitation/emission fluorescence spectra peaked at 400/470 nm (see FIG. 7 for spectra). According to gel-filtration data, nrM181-5 is a monomeric protein at a concentration of 1 mg/ml. The protein is capable of photoconversion to the red fluorescent form in response to violet light irradiation.

[2] = biological target: the molecule itself; assay: gel filtration on Sephadex-100, self-association (~1 mg/ml dimer; about 10 mg/ml tendency to tetramers)
Description: as §1

[3] = biological target: the molecule itself; assay: gel filtration as in Example 2, self-association
Description: as §1
Recombinant EqFP578 ml was prepared, purified and characterized as described in the Example 2 for wild type EqFP578. Fluorescence properties of this mutant were similar, but not identical to the wild type EqFP578. It has excitation-emission spectral peaks at 553 and 574 nm, respectively (FIG. 3). […] Like wild type EqFP578, EqFP578 m1 is a dimer.

[4] = biological target: the molecule itself; assay: gel filtration, self-association
Description: as §1
Recombinant M1-NA was prepared, purified and characterized as described in the Example 2 for wild type EqFP578. According to gel-filtration data, M1-NA is a dimeric protein at a concentration of 1 mg/ml. Fluorescent properties of M1-NA are the same as those of EqFP578 ml. M1-NA is a bright red fluorescent protein, characterized with excitation/emission fluorescence spectra peaked at 553/574 nm. M1-NA fluorescence quantum yield=0.67, molar extinction coefficient (at 553 nm)=92,000 M(−1)cm(−1). M1-NA doesn't form aggregates in vitro, according to gel-electrophoresis data. It also doesn't form any noticeable aggregates upon expression in eukaryotic cells, as it was shown for HeLa and 293T cell lines.
It excitation/emission spectra peaked at 574/602 nm (see FIG. 4 for spectra). M1-602 nm fluorescence quantum yield=0.35, molar extinction coefficient (at 574 nm)=74,400 M″)cm⁽⁻¹⁾. According to gel-filtration data, M1-602 nm is a dimeric protein at concentration of 1 mg/ml.

B1: nrM181-5 cyan mutant of EqFP578 (other)
chain: MSELIKENMHMKLYMEGTVNNHHFKCTSEGEGKPYEGTQTMKIKVVEGGPLPFAFDILATSFMYGSKTFINHTQGIPDFFKQSFPEGFTWERVTTYEDGGVLTATQDTSLQDGCLIYNVKIRGVNFPSNGPVMQKKTLGWEAHTEMLYPADGGLEGRSDMALKLVGGGHLIANFKTTYRSKKPAKNLKMPGVYYVDHRLERIKEADKETYVEQHEMAVAKYCDLPSKLGHKLN
notes: Derived from M1-mono1
[1]
  binding result: no binding (tested: 1 mg/ml)

B2: Cyan-2-1 cyan mutant of EqFP578 (other)
chain: MSELIKENMHMKLYMEGTVNNHHFKCTSEGEGKPYGGTQTMRIKVVEGGPLPVAFDILATSFMYGSRTFINHTQGIPDFFKQSFPEGFTWERVTTYEDGGVLTATQDTSLQDGCLIYNVKIRGVNFPSNGPVMQKKTLGWEAFTEMLYPADGGLEGRSDMALKLVGGGHLICNFKTTYRSKKPAKNLKMPGVYYVDYRLERIKEADKETYVEQHEVAVARYCDLPSKLGHKLN
notes: Derived from M1-mono1
[1]
  binding result: no binding (tested: 1 mg/ml)

B3: wild type Entacmaea quadricolor red fluorescent protein EqFP578 (other)
chain: MSELIKENMHMKLYMEGTVNNHHFKCTSEGERKPYEGTQTMKIKVVEGGPLPFAFDILATSFMYGSKTFINHTQGIPDLFKQSFPEGFTWERITTYEDGGVLTATQDTSLQNGCIIYNVKINGVNFPSNGSVMQKKTLGWEANTEMLYPADGGLRGHSQMALKLVGGGYLHCSFKTTYRSKKPAKNLKMPGFHFVDHRLERIKEADKETYVEQHEMAVAKYCDLPSKLGHR
notes: Recombinant protein from E. coli, purified on TALON resin; Dimer by gel filtration at ~1 mg/ml, with a tendency to form tetramers at about 10 mg/ml; not shown: N-terminal six-histidine tag from the pQE30 vector
[2]
  binding result: binds

B4: EqFP578 m1 mutant (other)
chain: MSELIKENMHMKLYMEGTVNNHHFKCTSEGEGKPYEGTQTMKIKVVEGGPLPFAFDILATSFMYGSKAFINHTQGIPDFFKQSFPEGFTWERITTYEDGGVLTATQDTSFQNGCIIYNVKINGVNFPSNGPVMQKKTRGWEANTEMLYPADGGLRGHSQMALKLVGGGYLHCSFKTTYRSKKPAKNLKMPGFHFVDHRLERIKEADKETYVEQHEMAVAKYCDLPSKLGHR
notes: Engineered mutant of EqFP578; also called EqFP578 ml
[3]
  binding result: binds

B5: M1-NA non-aggregating mutant of EqFP578 (other)
chain: MGEYSELITENMHMKLYMEGTVNNHHFKCTSEGEGKPYEGTQTMKIKVVEGGPLPFAFDILATSFMYGSKAFINHTQGIPDFFKQSFPEGFTWERITTYEDGGVLTATQDTSFQNGCIIYNVKINGVNFPSNGPVMQKKTRGWEANTEMLYPADGGLRGHSQMALKLVGGGYLHCSFKTTYRSKKPAKNLRMPGFHFVDHRLERIKEADKETYVEQHEMAVAKYCDLPSKLGHS
[4]
  binding result: binds

B6: M1-637 mutant of EqFP578 (other)
chain: MGEDSELITENMHMKLYMEGTVNNHHFKCTSEGEGKPYEGTQTMKIKVVEGGPLPFAFDILATSFMYGSKAFINHTQGIPDFFKQSFPEGFTWERITTYEDGGVLTATQDTSLQNGCLIYNVKINGVNFPSNGPVMQKKTLGWEASTEMLYPADSGLRGHSQMALKLVGGGYLHCSLKTTYRSKKPAKNLKMPGFHFVDRRLERIKEADKETYVEQHEMAVAKYCDLPSKLGHS
[4]
  binding result: binds

B7: M1-602 mutant of EqFP578 (other)
chain: MGEDSELITENMHMKLYMEGTVNNHHFKCTSEGEGKPYEGTQTMKIKVVEGGPLPFAFDILATSFMYGSKAFINHTQGIPDFFKQSFPEGFTWERITTYEDGGVLTATQDTSLQNGCLIYNVKINGVNFPSNGPVMQKKTLGWEASTEMLYPADSGLRGHGQMALKLVGGGYLHCSLKTTYRSKKPAKNLKMPGFHFVDHRLERIKEADKETYVEQHEMAVAKYCDLPSKLGHS
notes: Engineered red-shifted mutant; also called M1-602 nm
[4]
  binding result: binds
